Assay [1] concerns the target O-acetylserine sulfhydrylase from Entamoeba histolytica (Entamoeba histolytica). Put plainly: SEC; 120-ml Superdex S-200 column, buffer A (50 mM potassium phosphate, 300 mM KCl, pH 7.5, 10% glycerol), 0.7 mL/min. On the technique in general: Size exclusion chromatography separates by hydrodynamic size, large species first.
Assay [2] deals with T1, cytochrome bo3 (heme-copper bo3 oxidase) (Escherichia coli, UniProt P0ABI8).
T1 construct: gene cyoB; dodecyl maltoside micelles; with Cytochrome bo(3) ubiquinol oxidase subunit 2; Cytochrome bo(3) ubiquinol oxidase subunit 3; Cytochrome bo(3) ubiquinol oxidase subunit 4
Put plainly: O2 consumption, high-resolution respirometry (Oxygraph-2k); Hill fit with n = […]. The format is biochemical.

T1 sequence (P0ABJ3 whole entry): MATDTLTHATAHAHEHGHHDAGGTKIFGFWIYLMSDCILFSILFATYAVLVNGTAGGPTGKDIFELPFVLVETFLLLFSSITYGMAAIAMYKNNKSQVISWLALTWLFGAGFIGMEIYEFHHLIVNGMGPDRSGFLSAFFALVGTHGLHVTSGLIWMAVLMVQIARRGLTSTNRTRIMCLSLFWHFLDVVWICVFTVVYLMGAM
T1 sequence (P0ABI8 whole entry): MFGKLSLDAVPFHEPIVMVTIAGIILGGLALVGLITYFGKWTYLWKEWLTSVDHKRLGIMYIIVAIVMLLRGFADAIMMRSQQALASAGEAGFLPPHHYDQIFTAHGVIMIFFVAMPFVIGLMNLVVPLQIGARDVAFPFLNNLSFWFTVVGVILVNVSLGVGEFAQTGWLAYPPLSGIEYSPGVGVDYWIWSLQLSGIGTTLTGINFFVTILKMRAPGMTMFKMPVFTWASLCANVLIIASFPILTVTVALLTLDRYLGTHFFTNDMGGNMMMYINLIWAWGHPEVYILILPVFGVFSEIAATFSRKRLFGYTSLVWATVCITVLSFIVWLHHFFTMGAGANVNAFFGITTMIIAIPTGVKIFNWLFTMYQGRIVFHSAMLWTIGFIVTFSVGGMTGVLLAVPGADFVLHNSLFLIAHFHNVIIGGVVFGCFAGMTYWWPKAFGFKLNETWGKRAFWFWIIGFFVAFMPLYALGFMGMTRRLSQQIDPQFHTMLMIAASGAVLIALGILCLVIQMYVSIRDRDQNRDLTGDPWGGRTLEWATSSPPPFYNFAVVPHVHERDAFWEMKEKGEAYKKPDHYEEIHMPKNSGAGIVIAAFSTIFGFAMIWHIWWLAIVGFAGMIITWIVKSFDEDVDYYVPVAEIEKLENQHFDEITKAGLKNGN
T1 sequence (P0ABJ1 25-315, further chain): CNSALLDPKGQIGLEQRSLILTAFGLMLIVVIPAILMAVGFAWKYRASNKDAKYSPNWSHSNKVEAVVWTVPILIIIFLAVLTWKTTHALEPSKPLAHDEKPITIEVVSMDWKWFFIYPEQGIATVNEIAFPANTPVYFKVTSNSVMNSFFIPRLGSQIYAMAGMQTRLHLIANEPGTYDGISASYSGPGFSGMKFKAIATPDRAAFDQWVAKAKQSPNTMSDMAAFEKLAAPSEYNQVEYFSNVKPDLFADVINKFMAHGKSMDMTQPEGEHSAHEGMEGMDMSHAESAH
T1 sequence (P0ABJ6 whole entry, further chain): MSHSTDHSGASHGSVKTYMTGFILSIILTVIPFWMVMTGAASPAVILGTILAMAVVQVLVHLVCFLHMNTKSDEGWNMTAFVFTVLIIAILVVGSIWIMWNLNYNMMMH

The stoichiometry N is a count of units in the complex or per binding partner. Turning to “O-acetylserine sulfhydrylase from Entamoeba histolytica (enzyme)”, in assay [1], the stoichiometry N is 2. One may read the IC50 as the midpoint of a concentration-inhibition curve. Low values mean higher potency, high ones lower potency. Turning to `S` [NaHS], half-maximal inhibition in assay [2] (IC50) was put at 1100 ± 100 nM.
